Laboratory results: patent US20240254222A1 (Bayer, published 2024)
Substitutions are numbered along the chain they refer to.

B1: TPP-15051 (antibody, mouse IgG1)
heavy: EVQLLESGGGLVQPGGSLRLSCAASGFTFSSYPMGWVRQAPGKGLEWVAGIDDDGDSDTRYAPAVKGRATISRDNSKNTVYLQMNSLRAEDTAVYYCAKHTGIGANSAGSIDAWGQGTLVTVSSAKTTPPSVYPLAPGSAAQTNSMVTLGCLVKGYFPEPVTVTWNSGSLSSGVHTFPAVLQSDLYTLSSSVTVPSSTWPSETVTCNVAHPASSTKVDKKIVPRDCGCKPCICTVPEVSSVFIFPPKPKDVLTITLTPKVTCVVVDISKDDPEVQFSWFVDDVEVHTAQTQPREEQFNSTFRSVSELPIMHQDWLNGKEFKCRVNSAAFPAPIEKTISKTKGRPKAPQVYTIPPPKEQMAKDKVSLTCMITDFFPEDITVEWQWNGQPAENYKNTQPIMDTDGSYFVYSKLNVQKSNWEAGNTFTCSVLHEGLHNHHTEKSLSHSPGK
light: SYELTQPPSVSVSPGQTARITCSGGGSYTGSYYYGWYQQKPGQAPVTVIYYNNKRPSDIPERFSGSLSGTTNTLTISGVQAEDEADYYCGSADNSGDAFGTGTKVTVLGQPKSSPSVTLFPPSSEELETNKATLVCTITDFYPGVVTVDWKVDGTPVTQGMETTQPSKQSNNKYMASSYLTLTARAWERHSSYSCQVTHEGHTVEKSLSRADCS
B2: TPP-25257 (antibody, human IgG1, lambda, V domains shown)
VH: EVQLLESGGGLVQPGGSLRLSCAASGFDFDSYEMNWVRQAPGKGLEWVSGISWNSGWIDYADSVKGRFTISRDNSKNTLYLQMNSLRAEDTAVYYCARSGYSSSWFDPDFDYWGQGTLVTVSS
VL: QSVLTQPPSVSGAPGQRVTISCTGSSSNIGAGYDVHWYQQLPGTAPKLLIYGNSNRPSGVPDRFSGSKSGTSASLAITGLQAEDEADYYCQSYAGPNPYVVFGGGTKLTVLG
B3: TPP-26111 (antibody, human IgG1, lambda, V domains shown)
VH: B2 VH with D28T
VL: B2 VL with Q91S
B4: TPP-25224 (antibody, human IgG1, lambda, V domains shown)
VH: B2 VH with D28T
VL: B2 VL with P96I
B5: TPP-25248 (antibody, human IgG1, lambda, V domains shown)
VH: B2 VH with D30S, D59G
VL: B2 VL
B6: TPP-25448 (antibody, human IgG1, lambda, V domains shown)
VH: B2 VH with D28T
VL: B2 VL with N28D, P96I
B7: TPP-25655 (antibody, human IgG1, lambda, V domains shown)
VH: B2 VH with D30S
VL: B2 VL with N53A, Q91S, A94E
B8: TPP-25064 (antibody, human IgG1, lambda, V domains shown)
VH: B2 VH with D28T
VL: B2 VL with N28D, Q91S
B9: TPP-25256 (antibody, human IgG1, lambda, V domains shown)
VH: B2 VH with D28T
VL: B2 VL
B10: TPP-25497 (antibody, human IgG1, lambda, V domains shown)
VH: B2 VH
VL: B2 VL with N28D, Q91S, A94E, P96I
B11: TPP-25255 (antibody, human IgG1, lambda, V domains shown)
VH: B2 VH with D30S
VL: B2 VL
B12: TPP-18533 (antibody, human IgG1, lambda, V domains shown)
VH: B2 VH with D28T, D30S, W57S, D59G
VL: B2 VL with Q91S, P96S
notes: IgG1

What follows are binders tested against Human Semaphorin3A-Fc (R&D Systems), TPP-13211 (human) (assay: cell-based or functional assay).

For B1, the “EC50 [nM], MCM assay” value was 42.9 nM.

Target: Human Semaphorin3A-Fc (R&D Systems), TPP-13211 (human)
Assay: cell-based or functional assay
Remark: another data set of the same source

In the case of B1, the “EC50 (nM), GCC assay” value is reported as 243 nM.

What follows are binders tested against T1, Human Semaphorin3A-Fc (R&D Systems), TPP-13211 (human) (assay: competition ELISA on coated TPP-13211, competitor biotinylated TPP-15374).
T1 construct: R&D Systems 1250-S3; also called recombinant human Sema3A-Fc chimera
T1 sequence (chain, as listed by the source limits assumed): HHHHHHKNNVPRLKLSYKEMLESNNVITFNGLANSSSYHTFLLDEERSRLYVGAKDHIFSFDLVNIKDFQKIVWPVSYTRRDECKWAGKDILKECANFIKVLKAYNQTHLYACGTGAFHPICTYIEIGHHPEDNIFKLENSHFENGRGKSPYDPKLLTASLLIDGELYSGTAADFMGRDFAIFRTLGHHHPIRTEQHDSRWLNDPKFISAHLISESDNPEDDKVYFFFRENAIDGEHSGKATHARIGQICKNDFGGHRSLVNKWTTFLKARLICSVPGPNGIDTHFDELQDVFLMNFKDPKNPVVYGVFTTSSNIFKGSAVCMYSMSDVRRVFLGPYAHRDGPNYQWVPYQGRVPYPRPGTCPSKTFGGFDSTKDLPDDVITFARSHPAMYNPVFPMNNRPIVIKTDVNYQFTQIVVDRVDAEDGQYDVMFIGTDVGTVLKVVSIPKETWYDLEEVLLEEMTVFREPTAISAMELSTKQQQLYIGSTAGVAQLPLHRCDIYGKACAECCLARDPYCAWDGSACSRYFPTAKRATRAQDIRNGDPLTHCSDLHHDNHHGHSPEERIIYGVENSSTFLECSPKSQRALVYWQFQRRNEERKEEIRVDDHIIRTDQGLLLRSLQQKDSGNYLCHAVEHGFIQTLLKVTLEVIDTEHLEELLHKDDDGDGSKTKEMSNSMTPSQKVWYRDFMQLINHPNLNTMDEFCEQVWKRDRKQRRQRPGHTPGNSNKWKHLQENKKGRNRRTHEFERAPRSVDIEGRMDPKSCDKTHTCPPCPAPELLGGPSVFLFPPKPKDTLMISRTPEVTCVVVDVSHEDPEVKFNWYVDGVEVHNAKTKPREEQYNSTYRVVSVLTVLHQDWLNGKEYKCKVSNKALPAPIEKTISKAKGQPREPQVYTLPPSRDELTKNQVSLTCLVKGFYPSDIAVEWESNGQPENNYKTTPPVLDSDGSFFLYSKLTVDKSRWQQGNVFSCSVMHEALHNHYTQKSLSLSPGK
Method: For screening in a competition ELISA setup, human Sema3a (TPP-13211) was coated onto 384-well plates (Greiner bio-one, 781077) with a concentration of 0.5 μg/ml in coating buffer (Carbonate-Basis pH 9.6, Candor 121125) over night at 10° C. After washing the plates 3 times with 50 μl PBS 0.05% Tween the plates were blocked with 50 μl Smart Block® (Candor 113500) for 1 h at 20° C. and washed again 3 times as described.
Subsequently, 20 μl of pre-mixed antibody solution was added to the plates and incubate for 18 h at 10° C. […] The total concentration of the added antibody solution was 0.25 μg/ml. During the incubation time the antibodies bound to the plates in a competitive manner as they compete for the same epitope on the human Sema3A protein.
After subsequent washing with 50 μl PBS 0.05% Tween for 3 times, 20 μl of a Streptavidin-HRP solution (R&D Systems, DY998, 1:200 in PBS 0.05% Tween 10% Smart Block) were added and incubated for 1 h and 20° C. followed by subsequent washing 3 times with 50 μl PBS 0.05% Tween and addition of 20 μl Amplex Red solution (Invitrogen A12222, 1:1000 in NaP-buffer 50 mM pH7.6 with 1:10000 of 30% H2O2). After a final incubation for 20 min at 20° C. the signal was determined using an emission wavelength of 595 nm and excitation of 530 nm.

Compared with B2, B3 is higher in “VAL norm to TPP-9809 (1 to 1 ratio)” value: 0.36 for the first, 0.49 for the second.

Compared with B4, B5 is lower in “VAL norm to TPP-9809 (1 to 1 ratio)” value: 0.43 for the first, 0.36 for the second.

First: B6
Second: B7
The “VAL norm to TPP-9809 (1 to 1 ratio)” value of the first is higher: 0.47 for the first, 0.39 for the second.

First: B8
Second: B9
The “VAL norm to TPP-9809 (1 to 1 ratio)” value of the first is higher: 0.48 for the first, 0.41 for the second.

Going from B10 to B11, the “VAL norm to TPP-9809 (1 to 1 ratio)” value falls from 0.39 to 0.37.

B2 and B3 are the same in “VAL norm to TPP-9809 (1 to 5 ratio)” value: 0.18 for the first, 0.18 for the second.

Going from B4 to B5, the “VAL norm to TPP-9809 (1 to 5 ratio)” value rises from 0.17 to 0.2.

Going from B6 to B7, the “VAL norm to TPP-9809 (1 to 5 ratio)” value rises from 0.19 to 0.23.

Compared with B8, B9 is lower in “VAL norm to TPP-9809 (1 to 5 ratio)” value: 0.19 for the first, 0.15 for the second.

Compared with B10, B11 is lower in “VAL norm to TPP-9809 (1 to 5 ratio)” value: 0.26 for the first, 0.17 for the second.

Each binder was assayed against T2, Mouse Semaphorin3A-Sema Domain, TPP-19069 (mouse, UniProt O08665 21-569) (assay: SPR, captured antibody, Sema3A domain analyte).
T2 construct: produced inhouse
T2 sequence: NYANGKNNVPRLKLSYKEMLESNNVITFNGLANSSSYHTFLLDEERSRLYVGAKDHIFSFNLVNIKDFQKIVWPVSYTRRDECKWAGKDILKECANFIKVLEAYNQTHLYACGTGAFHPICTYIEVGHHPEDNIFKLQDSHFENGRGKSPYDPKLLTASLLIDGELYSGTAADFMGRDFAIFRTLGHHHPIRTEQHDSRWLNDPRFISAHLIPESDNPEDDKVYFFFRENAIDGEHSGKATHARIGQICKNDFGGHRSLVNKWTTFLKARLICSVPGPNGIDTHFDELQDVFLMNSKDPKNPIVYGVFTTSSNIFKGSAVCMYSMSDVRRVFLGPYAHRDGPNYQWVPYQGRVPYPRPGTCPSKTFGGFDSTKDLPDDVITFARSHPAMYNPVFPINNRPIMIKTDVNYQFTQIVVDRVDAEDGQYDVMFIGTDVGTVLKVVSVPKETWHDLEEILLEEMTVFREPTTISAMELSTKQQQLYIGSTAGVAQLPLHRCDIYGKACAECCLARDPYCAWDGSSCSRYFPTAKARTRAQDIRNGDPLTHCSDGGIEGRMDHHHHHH
Method: (§1) To assess the binding kinetics and affinity of anti-Sema3A antibodies as well as their species cross-reactivity profile, binding assays were conducted using surface plasmon resonance (SPR). Binding assays were performed on a Biacore T200 instrument or on a Biacore 8K+ instrument (Cytiva) at 25° C. using assay buffer HBS P+, 300 mM NaCl, 0.75 mM CaCl₂, 2.5 mM MgCl₂, 1 mg/ml BSA, 0.05% NaN₃. Antibodies were captured either via anti-human Fc IgGs (“Human antibody capture kit”, Order No. BR100839, Cytiva) or in case of Fc-tagged analytes by anti-human Fab IgGs (“Human Fab capture kit”, Order No. 28958325, Cytiva) covalently amine coupled to a Series S CM5 sensor chip (Cytiva). The amine coupling was carried out according to the manufacturer's instructions using 1-ethyl-3-(3-dimethylaminopropyl) carbodiimide hydrochloride (EDC), N-hydroxysuccinimide (NHS) and ethanolamine HCl, pH 8.5 (“Amine Coupling Kit” BR-1000-50, Cytiva.). For phage display hits Fc-tagged human and mouse Sema3A was used as analytes in a concentration range from 1.56-200 nM. Human, mouse, cynomolgus, rat, dog and pig monovalent Sema3A domain were used as analytes in a concentration series from […] in multi cycle kinetics mode or in 100 nM for binding analysis only. The sensor surface was regenerated with glycine pH 2.0 after each antigen injection. Obtained sensorgrams were double referenced (subtraction of reference flow cell signal and buffer injection) and were fitted to a 1:1 Langmuir binding model to derive kinetic data using the Biacore T200 Evaluation software.

Work on B12 yielded a Kd of 8.1 nM.

What follows are binders tested against T3, Human Semaphorin3A-Sema Domain, TPP-19068 (human, UniProt Q14563 21-569) (assay: SPR, captured antibody, Sema3A domain analyte).
T3 construct: produced inhouse in HEK293-6E; also called human monovalent Sema3A domain
T3 sequence: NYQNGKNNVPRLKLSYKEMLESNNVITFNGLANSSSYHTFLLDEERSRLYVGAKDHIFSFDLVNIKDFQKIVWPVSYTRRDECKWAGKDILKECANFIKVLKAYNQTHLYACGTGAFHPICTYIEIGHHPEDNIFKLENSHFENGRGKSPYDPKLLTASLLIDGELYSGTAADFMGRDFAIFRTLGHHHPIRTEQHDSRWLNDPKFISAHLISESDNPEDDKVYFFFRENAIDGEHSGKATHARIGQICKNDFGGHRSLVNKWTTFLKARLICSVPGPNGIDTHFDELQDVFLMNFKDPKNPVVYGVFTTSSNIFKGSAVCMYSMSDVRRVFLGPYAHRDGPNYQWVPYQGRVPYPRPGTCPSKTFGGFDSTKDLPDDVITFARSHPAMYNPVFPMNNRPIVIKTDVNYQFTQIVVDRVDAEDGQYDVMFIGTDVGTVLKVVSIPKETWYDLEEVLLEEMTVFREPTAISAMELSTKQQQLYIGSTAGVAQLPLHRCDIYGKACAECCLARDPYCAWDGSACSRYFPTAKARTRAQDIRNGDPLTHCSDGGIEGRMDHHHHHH
Method: as §1

Compared with B12, B2 is 160-fold lower in Kd: 8.7 nM for the first, 0.053 nM for the second.

B3 and B4 are within 1.5-fold of each other in Kd: 0.052 nM for the first, 0.049 nM for the second.

B5 and B6 are within 1.5-fold of each other in Kd: 0.05 nM for the first, 0.053 nM for the second.

B7 and B8 are the same in Kd: 0.049 nM for the first, 0.049 nM for the second.

B9 and B10 are within 1.5-fold of each other in Kd: 0.049 nM for the first, 0.052 nM for the second.

B11 showed a Kd of 0.051 nM.

Target: T4, Cyno Semaphorin3A-Sema Domain, TPP-19122 (cynomolgus (Macaca fascicularis), UniProt Q63548 21-569 (rat entry), limits assumed)
T4 construct: produced inhouse
T4 chain: T2 sequence with A3Q, E102K, V126I, Q138E, D139N, S296F, V444I, I455V, V489I
Assay: SPR, captured antibody, Sema3A domain analyte
Method: as §1

Binder B12 has a Kd of 6.4 nM.
